According to patent publication US20080227691A1:

Biological target: LRP (low density lipoprotein receptor-related protein) (human) (UniProt Q07954)
Experiment: SPR, Biacore 3000, LRP amine-coupled to CM5 chip, A2 domain as analyte 62.5-500 nM, 1:1 Langmuir fit, 25 C

Kd	Substance
260 nM	HPC4-tagged A2 domain mutant 488S->N & 490R->T (from UniProt P00451 392-759) (ligand)
20 nM	HPC4-tagged A2 domain of wild-type FVIII (from UniProt P00451 392-759) (ligand)
170 nM	HPC4-tagged A2 domain mutant 433D->N (from UniProt P00451 392-759) (ligand)
